# Assay results from patent US20100196934A1.
# Several values for one entry are separate records, joined by “and”; a condition that tells them apart may be missing. Equal values may be shown once. Read-outs that look alike come from different tables or passages of the source.
# Assays:
# [1] = biological target: Syrian hamster PrP^Sc (scrapie-infected SHa brain homogenate) (Syrian hamster); assay: sandwich ELISA, capture 3F4; scrapie-infected SHa BH, PK 5 ug/mL, NaOH-denatured
# [2] = biological target: Syrian hamster PrP^C (normal SHa brain homogenate) (Syrian hamster); assay: sandwich ELISA, capture 3F4; normal SHa BH, trypsin 50 ug/mL, not denatured
# [3] = biological target: Syrian hamster PrP^C (normal SHa brain homogenate) (Syrian hamster); assay: sandwich ELISA, capture 3F4; normal SHa BH, PK 100 ug/mL, NaOH-denatured
# [4] = biological target: Syrian hamster PrP^C (normal SHa brain homogenate) (Syrian hamster); assay: sandwich ELISA, capture 3F4; normal SHa BH, PK 5 ug/mL, NaOH-denatured
# [5] = biological target: Syrian hamster PrP^C (normal SHa brain homogenate) (Syrian hamster); assay: sandwich ELISA, capture 3F4; normal SHa BH, PK 0 ug/mL, NaOH-denatured
# [6] = biological target: Syrian hamster PrP^Sc (scrapie-infected SHa brain homogenate) (Syrian hamster)
# [7] = biological target: Syrian hamster PrP^C (normal SHa brain homogenate) (Syrian hamster); assay: sandwich ELISA, capture 3F4; normal SHa BH, trypsin 5 ug/mL, NaOH-denatured
# [8] = biological target: Syrian hamster PrP^Sc (scrapie-infected SHa brain homogenate) (Syrian hamster); assay: sandwich ELISA, capture 3F4; infectious SHa BH, PK 25 ug/mL, GdnHCl-denatured
# [9] = biological target: Syrian hamster PrP^Sc (scrapie-infected SHa brain homogenate) (Syrian hamster); assay: sandwich ELISA, capture 3F4; scrapie-infected SHa BH, PK 0 ug/mL, NaOH-denatured
# [10] = biological target: Syrian hamster PrP^C (normal SHa brain homogenate) (Syrian hamster); assay: sandwich ELISA, capture 3F4; normal SHa BH, PK 25 ug/mL, GdnHCl-denatured
# [11] = biological target: Syrian hamster PrP^C (normal SHa brain homogenate) (Syrian hamster); assay: sandwich ELISA, capture 3F4; normal SHa BH, trypsin 20 ug/mL, NaOH-denatured
# [12] = biological target: Syrian hamster PrP^C (normal SHa brain homogenate) (Syrian hamster); assay: sandwich ELISA, capture 3F4; normal SHa BH, PK 20 ug/mL, NaOH-denatured
# [13] = biological target: Syrian hamster PrP^C (normal SHa brain homogenate) (Syrian hamster); assay: sandwich ELISA, capture 3F4; normal SHa BH, trypsin 100 ug/mL, not denatured
# [14] = biological target: Syrian hamster PrP^C (normal SHa brain homogenate) (Syrian hamster); assay: sandwich ELISA, capture 3F4; normal SHa BH, PK 10 ug/mL, NaOH-denatured
# [15] = biological target: Syrian hamster PrP^C (normal SHa brain homogenate) (Syrian hamster); assay: sandwich ELISA, capture 3F4; normal SHa BH, trypsin 0 ug/mL, NaOH-denatured
# [16] = biological target: Syrian hamster PrP^C (normal SHa brain homogenate) (Syrian hamster); assay: sandwich ELISA, capture POM17; normal SHa BH, PK 25 ug/mL, GdnHCl-denatured
# [17] = biological target: Syrian hamster PrP^C (normal SHa brain homogenate) (Syrian hamster); assay: sandwich ELISA, capture POM17; normal SHa BH, trypsin 25 ug/mL, GdnHCl-denatured
# [18] = biological target: Syrian hamster PrP^C (normal SHa brain homogenate) (Syrian hamster); assay: sandwich ELISA, capture 3F4; normal SHa BH, trypsin 10 ug/mL, NaOH-denatured
# [19] = biological target: Syrian hamster PrP^C (normal SHa brain homogenate) (Syrian hamster); assay: sandwich ELISA, capture 3F4; normal SHa BH, trypsin 100 ug/mL, NaOH-denatured
# [20] = biological target: Syrian hamster PrP^C (normal SHa brain homogenate) (Syrian hamster); assay: sandwich ELISA, capture 3F4; normal SHa BH, PK 50 ug/mL, NaOH-denatured
# [21] = biological target: Syrian hamster PrP^Sc (scrapie-infected SHa brain homogenate) (Syrian hamster); assay: sandwich ELISA, capture POM17; infectious SHa BH, PK 25 ug/mL, GdnHCl-denatured
# [22] = biological target: Syrian hamster PrP^C (normal SHa brain homogenate) (Syrian hamster); assay: sandwich ELISA, capture 3F4; normal SHa BH, trypsin 50 ug/mL, NaOH-denatured
# [23] = biological target: Human PrP^C (normal human plasma; normal human brain homogenate) (human); assay: sandwich ELISA, capture 3F4; normal human plasma, trypsin 0 ug/mL, not denatured
# [24] = biological target: Syrian hamster PrP^C (normal SHa brain homogenate) (Syrian hamster); assay: sandwich ELISA, capture 3F4; normal SHa BH, trypsin 25 ug/mL, not denatured
# [25] = biological target: Syrian hamster PrP^C (normal SHa brain homogenate) (Syrian hamster); assay: sandwich ELISA, capture 3F4; normal SHa BH, trypsin 0 ug/mL, not denatured
# [26] = biological target: Syrian hamster PrP^C (normal SHa brain homogenate) (Syrian hamster); assay: sandwich ELISA, capture 3F4; normal SHa BH, trypsin 25 ug/mL, GdnHCl-denatured
substance,measurement,setting,value
POM2 antibody,RLU,[1],2310 RLU
same,RLU,[2],14.9 RLU
same,RLU,[3],4.6 RLU
same,RLU,[4],84.1 RLU
same,RLU,[5],1950 RLU
same,RLU,[6],2370 RLU and 2250 RLU
same,RLU,[7],33.2 RLU
same,RLU,[8],527 RLU
same,RLU,[9],2290 RLU
same,RLU,[10],10 RLU
same,RLU,[11],8.5 RLU
same,RLU,[12],37.1 RLU
same,RLU,[13],11.7 RLU
same,RLU,[14],50.2 RLU
same,RLU,[15],2140 RLU
same,RLU,[16],13.4 RLU
same,RLU,[17],70.6 RLU
same,RLU,[18],19.7 RLU
same,RLU,[19],3.4 RLU
same,RLU,[20],15.8 RLU
same,RLU,[21],596 RLU
same,RLU,[22],3.4 RLU
same,RLU,[23],195 RLU
same,RLU,[24],20.5 RLU
same,RLU,[25],2940 RLU
same,RLU,[26],21.4 RLU
